{"source": "patent US8865222B2", "about": "“Beta-casein assemblies for enrichment of food and beverages and methods of preparation thereof” (Technion Research and Development Foundation Ltd., priority 2008, dated 2014)", "molecules": {"B1": {"name": "beta-casein: lyophilized bovine beta-casein (~24 kDa milk protein) self-assembled into nano-sized micelles at low or neutral pH (protein, UniProt P02666 16-224, looked up)", "Beta-casein": "RELEELNVPGEIVESLSSSEESITRINKKIEKFQSEEQQQTEDELQDKIHPFAQTQSLVYPFPGPIPNSLPQNIPPLTQTPVVVPPFLQPEVMGVSKVKEAMAPKHKEMPFPKYPVEPFTESQSLTLTDVENLHLPLPLLQSWMHQPHQPLPPTVMFPPQSVLSLSQSKVLPVPQKAVPYPQRDMPIQAFLLYQEPVLGPVRGPFPIIV"}}, "key": {"[1]": {"experiment": "Turbidity (solution absorbance at 600 nm)", "format": "physicochemical", "conditions": "pH 2.6, empty assemblies, up to at least 2 wt %"}, "[2]": {"experiment": "Storage stability of beta-casein assembly solutions", "format": "physicochemical", "description": "Preparation of beta-casein assemblies: weighted amounts of lyophilized bovine beta-casein are dissolved in low-pH solution (e.g. ˜6% by weight of lactic acid solution or hydrochloride acid solution, ˜pH 2.1), typically at concentrations ranging from 0.1 mg/mL up to at least 50 mg/ml, to the desired pH (2.5-2.8), below the pI. The pH can be adjusted to the desired values using appropriate buffers. Mixing is done at room temperature, and the solution is equilibrated at 4° C. for ˜36 hr, allowing complete solubilization and formation of the protein assemblies. Thereafter, the solutions can be held at any temperature between 1 and 60° C. Similarly, to prepare beta-casein micelles at neutral pH, weighted amounts of lyophilized protein are added to a buffer at neutral pH (e.g., HEPES buffer, or PBS), at concentration ranging from 0.1 mg/ml to ˜40 mg/ml. Complete solubilization of the protein is achieved within ˜36 hr, at 4° C. A transparent solution is obtained, containing unique nano-sized beta-casein assemblies. The protein solutions are filtered through a porous membrane of 0.45 micron pore size. The beta-casein concentration was determined by measuring the absorbance at 280 nm by an Ultrospec 2000 UV/Visible spectrophotometer (Pharmacia Biotech, England), using an extinction coefficient of 4.6(1%) mM^−1cm^−1. […]"}}, "note": "Entries after “also recorded” stand apart in the source; their conditions may differ."}
{"molecule": "B1", "values": [{"measurement": "turbidity", "setting": "[1]", "value": "does not vary significantly"}, {"measurement": "colloidal / storage stability of sterile solution", "setting": "[2]; sterile", "value": "at least several months; also recorded: colloidally stable for months"}, {"measurement": "storage stability of the solution", "setting": "[2]; stored at 4 °C", "value": "several weeks"}]}
